Measured values reported in the supplement of paper PMC10567573.
± gives the standard deviation.

Assay: protein stability index of a GFP-peptide fusion (GPS, HEK-293T) (PSI 1-6); higher = more stable
[1] = treatment: DMSO, c terminus: a fixed tail appended
[2] = treatment: MLN4924 1 uM, 8 h, c terminus: a fixed tail appended
[3] = treatment: DMSO, c terminus: native
[4] = treatment: MLN4924 1 uM, 8 h, c terminus: native
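Further: 24-mer peptide tiles fused after GFP, lentivirally expressed, FACS-sorted into six equal bins by GFP/DsRed ratio, decoded by Illumina sequencing, PSI is the read-weighted mean bin number.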

Sequence | protein stability index [1] | protein stability index [2] | protein stability index [3] | protein stability index [4]
MATFPCQLCGKTFLTLEKFTIHNY [PLAGL1] | 2.47 ± 0.23 | 2.4 ± 0.28 | – | –
MDLMVEVSPRRIFANGHTYHINSI [PPP2R2C] | 2.91 ± 0.41 | 2.8 ± 0.6 | – | –
MDLRTAVYNAARDGKLQLLQKLLS [FEM1A] | 2.21 ± 0.26 | 2.28 ± 0.24 | – | –
MDMDQDSEEEKELYLNLALHLASD [PDS5B] | 3.82 ± 0.23 | 4.04 ± 0.081 | – | –
MDSAGQDINLNSPNKGLLSDSMTD [TPD52L2] | 5.32 ± 0.2 | 5.25 ± 0.2 | – | –
MDSKDVEVSSIQVRRKPQHGVCSQ [SERPINB9P1] | 4.47 ± 0.13 | 4.64 ± 0.22 | – | –
MDVTSRCTLGDPNKLPEGVPQPAR [KLHL20] | 4.64 ± 0.28 | 4.72 ± 0.23 | – | –
MDYDSYQHYFYDYDCGEDFYRSTA [MYCL] | 2.75 ± 0.35 | 2.51 ± 0.26 | – | –
MEKIPFVLGGNLQGGELVVAYPYD [CPXM2] | 2.81 ± 0.48 | 2.79 ± 0.77 | – | –
MGNILTCCINSHCGWPRGKDAPCY [DRICH1] | 2.44 ± 0.39 | 2.08 ± 0.15 | – | –
MGQHISLAPIHKLEEALYEYQPLQ [MNAT1] | 3 ± 0.29 | 3 ± 0.048 | – | –
MGTEPAPSAPEALHSLPGVSLSLE [TBX6] | 4.28 ± 0.22 | 4.41 ± 0.24 | – | –
MHHCKRYRSPEPDPYLSYRWKRRR [CLK3] | 3.49 ± 0.39 | 3.69 ± 0.21 | – | –
MIHGRSVLHIVASLIILHLSGATK [NETO1] | 3.03 ± 0.24 | 3.02 ± 0.54 | – | –
MILLVNLFVLLSVVCVLLNLAGFI [FAM189A2] | 3.03 ± 0.34 | 3.14 ± 0.47 | – | –
MINSTSTQPPDESCSQNLLITQQI [P2RY14] | 4.24 ± 0.16 | 4.26 ± 0.096 | – | –
MKDRLAELLDLSKQYDQQFPDGDD [STX11] | 4.77 ± 0.33 | 4.89 ± 0.15 | – | –
MLASVESVPFSFDPNTAAGWLSVS [TRIM35] | 2.31 ± 0.22 | 2.33 ± 0.28 | – | –
MLYAKPPPTINGIKGLQRKERLKP [KRT34] | 3.1 ± 0.28 | 3.43 ± 0.19 | – | –
MMRTQCLLGLRTFVAFAAKLWSFF [CTDNEP1] | 4.22 ± 0.2 | 4.02 ± 0.29 | – | –
MPLLRDIIKMATARQETKEMARKV [ZER1] | 2.99 ± 0.3 | 3.06 ± 0.19 | – | –
MSHKQIYYSDKYDDEEFEYRHVML [CKS1B] | 2.52 ± 0.17 | 2.66 ± 0.18 | – | –

Sequence | protein stability index [1] | protein stability index [2] | protein stability index [3] | protein stability index [4]
MSLEGTEKASWLGEQPQFWSKTQV [ELF3] | 3.31 ± 0.42 | 3.33 ± 0.16 | – | –
MVAHDETGGLLPIKRTIRVLDVNN [NET1] | 3.27 ± 0.21 | 3.35 ± 0.25 | – | –
MYEEEMEREEITTKKRKLGKNPDV [FAM50A] | 4.94 ± 0.57 | 5.14 ± 0.44 | – | –
MYLKQLAEYRKYIHSRKCRCLVM [RHOBTB3] | – | – | 1.95 ± 0.5 | 2 ± 0.33
NAKLAADDFRTKYQTEQSLRQLVE [KRT33B] | 3.4 ± 0.26 | 3.48 ± 0.14 | – | –
NDINILRVSNPGRLAELLLLETDA [GADD45A] | 2.31 ± 0.19 | 2.5 ± 0.5 | – | –
NDNKVLRYLAVLESPIPEDKDRRF [EFHC1] | 3.51 ± 0.21 | 3.6 ± 0.15 | – | –
NEEIRAVGRLKRERSMSENAVRQN [MFF] | 5.15 ± 0.2 | 4.87 ± 0.27 | – | –
NETGYLSSVECYNLETNEWRYVSS [KLHL14] | 2.61 ± 0.32 | 2.91 ± 0.57 | – | –
NFQFLPQVNGHPDPFDEIILFSLP [PTPN9] | 2.4 ± 0.29 | 2.37 ± 0.19 | – | –
NGAGVTVLRREISELRTKVQEQQK [FBXO28] | 4.11 ± 0.23 | 4.21 ± 0.13 | – | –
NGIHVCMVFEVLGHHLLKWIIKSN [SRPK2] | 3.01 ± 0.14 | 2.96 ± 0.29 | – | –
NGLALGPDLNILEDSAESRPWRAG [PSD2] | 4 ± 0.14 | 4.24 ± 0.38 | – | –
NGSSEKREVRQFQFTAWPDHGVPE [PTPRD] | 4.41 ± 0.14 | 4.43 ± 0.19 | – | –
NGVTQKASAPTYPSLYSSYHQGCL [NANOGP8] | 2.75 ± 0.11 | 2.93 ± 0.34 | – | –
NIEEIDEIPLVIKYKKAVGLKLKQ [WDR88] | 2.78 ± 0.19 | 2.91 ± 0.28 | – | –
NISHTKEKKKGKAKKKRLTKADIG [WASL] | 4.78 ± 0.23 | 4.81 ± 0.26 | – | –
NKALWENNKLKLQQKLVIDTVTEV [CBY2] | 3.16 ± 0.35 | 3.29 ± 0.25 | – | –
NKLQTLSPSHKGIAAPHAGANVKP [ZC2HC1A] | 4.35 ± 0.16 | 4.457 ± 0.035 | – | –
NKPAVKLLYNRSNNKYSYTSNSDD [KCTD10] | 4.1 ± 0.1 | 4.03 ± 0.31 | – | –
NLEKQLICPICLEMFTKPVVILPC [TRIM55] | 2.41 ± 0.34 | 2.33 ± 0.22 | – | –
NLLISLTFLTVTDLIGLPWVCFIY [SLC2A12] | 3.36 ± 0.45 | 3.19 ± 0.63 | – | –

Sequence | protein stability index [1] | protein stability index [2] | protein stability index [3] | protein stability index [4]
NLSYKQVKTWFQNQRMKSKRWQKN [NANOGP8] | 2.54 ± 0.23 | 2.57 ± 0.33 | – | –
NLWYSFQDEEDMFMVVDLLLGGDL [STK32A] | 2.41 ± 0.69 | 2.2 ± 0.39 | – | –
NMERFGEDNLEDDDVEMKNGITQG [CDC14A] | 5.54 ± 0.19 | 5.53 ± 0.23 | – | –
NNIKFKKSSILTRAGEQRKRSQSM [CLCN6] | 4.06 ± 0.41 | 4.39 ± 0.1 | – | –
NNKLKLQQKLVIDTVTEVTARMEM [CBY2] | 2.94 ± 0.53 | 2.89 ± 0.41 | – | –
NNYRLGGNPSTNSRVTASSGITIP [SMARCE1] | 3.64 ± 0.3 | 3.54 ± 0.38 | – | –
NPALEGLTQPLQGGTPHCEPCQLP [DNAAF3] | 4.89 ± 0.36 | 4.97 ± 0.24 | – | –
NPAVRTAAANAAAGAAENAFRAP [SCAMP3] | – | – | 3.08 ± 0.69 | 3.36 ± 0.55
NPEEYNLDEPNAESDYTYSSSYEQ [SRPK2] | 5.52 ± 0.19 | 5.46 ± 0.25 | – | –
NPRAPVIIYKQTKGGVQNFNKDLV [CEP70] | 2.52 ± 0.18 | 2.46 ± 0.25 | – | –
NPYTELLVLKAHHDIVRFLVQLDD [WDR41] | 2.84 ± 0.39 | 2.65 ± 0.35 | – | –
NQKSDIWALGCVLYELASLKRAFE [NEK8] | 2.38 ± 0.72 | 2.41 ± 0.34 | – | –
NSEDIFLLLCLKVDNHFNLLTTSP [TRIM43] | 2.58 ± 0.33 | 2.31 ± 0.67 | – | –
NSNLEEPLNPKPHKKKSPGEKPHR [ZNF449] | 5.47 ± 0.23 | 5.45 ± 0.2 | – | –
NSSTWGSLKQALKGLSVEFALLAD [SNX8] | 2.39 ± 0.55 | 2.45 ± 0.36 | – | –
NVEMDATPGIDLTRVLAEMREQYE [KRT13] | 4.47 ± 0.17 | 4.75 ± 0.32 | – | –
NVHTGEFRNCGACVTLMQGHEGSV [WDR88] | 2.35 ± 0.5 | 2.17 ± 0.2 | – | –
NVLVDPSARIGQNCSIGPNVSLGP [GMPPB] | 3.61 ± 0.088 | 3.43 ± 0.25 | – | –
NVQRLAEPSQMLKHAVVNLINYQD [CTNNB1] | 2.66 ± 0.18 | 2.83 ± 0.12 | – | –
NYYEVGSNRGAYVKLGPALTPHIV [PPEF2] | 2.19 ± 0.2 | 2.55 ± 0.32 | – | –
PAMGLQKKLRLNGGRNPYEGRVEV [LOXL2] | – | 4.08 ± 0.88 | – | –
